T1: FcγRIIaR (human, UniProt P12318)
T1 construct: recombinant receptor protein with 6xHis and GST tags; also called R131 FcγRIIa
T1 sequence (receptor, looked up): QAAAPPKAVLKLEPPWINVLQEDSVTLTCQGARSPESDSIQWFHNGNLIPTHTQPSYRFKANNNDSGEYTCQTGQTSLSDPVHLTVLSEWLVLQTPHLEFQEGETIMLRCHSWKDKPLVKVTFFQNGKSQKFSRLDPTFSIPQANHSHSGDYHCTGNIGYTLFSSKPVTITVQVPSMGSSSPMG

T2: human H131 FcγRIIa receptor protein (6xHis and GST tags) (human, UniProt P12318 34-217, limits assumed)
T2 construct: also called HIIa
T2 sequence (looked up): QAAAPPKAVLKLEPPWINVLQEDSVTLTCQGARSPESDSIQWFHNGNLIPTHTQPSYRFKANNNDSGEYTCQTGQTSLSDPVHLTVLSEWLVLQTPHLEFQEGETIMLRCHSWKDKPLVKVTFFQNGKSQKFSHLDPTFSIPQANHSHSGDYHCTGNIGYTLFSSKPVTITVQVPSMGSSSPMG

T3: human FcγRIIb receptor protein (R&D Systems) (human, UniProt P31994 46-217)
T3 construct: Analyte injected over antibodies captured on a protein A/G chip (Biacore); also called CD32b
T3 sequence (looked up): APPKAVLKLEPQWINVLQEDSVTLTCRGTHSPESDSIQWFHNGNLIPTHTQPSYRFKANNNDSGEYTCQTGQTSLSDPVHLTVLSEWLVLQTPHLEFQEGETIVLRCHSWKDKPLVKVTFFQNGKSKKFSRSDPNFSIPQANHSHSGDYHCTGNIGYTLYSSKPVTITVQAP


Assays:
Experiment in all cases: SPR (Biacore)
[1] = molecular target: T1, FcγRIIaR
[2] = molecular target: T2, human H131 FcγRIIa receptor protein …
[3] = molecular target: T4, human FcγRI receptor protein (R&D Systems) (human, UniProt P12314 16-288)
T4 construct: also called CD64

[4] = molecular target: T3, human FcγRIIb receptor protein (R&D …)
[5] = molecular target: T5, human V158 FcγRIIIa receptor protein (6xHis and GST tags) (human, UniProt P08637 17-208, limits assumed)
T5 construct: also called VIIIa
T5 sequence (P08637 17-208 F176V limits assumed): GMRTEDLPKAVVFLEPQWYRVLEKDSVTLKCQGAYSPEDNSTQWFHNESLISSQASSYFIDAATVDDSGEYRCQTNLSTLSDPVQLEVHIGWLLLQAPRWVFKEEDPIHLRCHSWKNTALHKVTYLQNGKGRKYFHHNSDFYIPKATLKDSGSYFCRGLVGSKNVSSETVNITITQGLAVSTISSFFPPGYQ

T4 sequence (P12314 16-288 limits assumed): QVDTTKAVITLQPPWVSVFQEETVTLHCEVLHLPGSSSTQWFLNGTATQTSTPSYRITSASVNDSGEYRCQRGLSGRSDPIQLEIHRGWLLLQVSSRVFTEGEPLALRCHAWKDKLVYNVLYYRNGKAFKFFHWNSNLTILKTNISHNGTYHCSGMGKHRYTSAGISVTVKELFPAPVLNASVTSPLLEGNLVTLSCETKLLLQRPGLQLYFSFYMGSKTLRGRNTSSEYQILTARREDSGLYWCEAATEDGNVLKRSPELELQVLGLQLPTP

| Binder | Fold FcγRIIaR [1] [fold] | Fold FcγRIIaH [2] [fold] | Fold FcγRI [3] [fold] | Fold FcγRIIb [4] [fold] | Fold FcγRIIIaV [5] [fold] | binding result [5] | binding result [2] |
| --- | --- | --- | --- | --- | --- | --- | --- |
| G236D/S239D/S267E (antibody, human IgG1, kappa, HuAM4G7 IgG1 Fc variant) heavy: EVQLVESGGGLVKPGGSLKLSCAASGYTFTSYVMHWVRQAPGKGLEWIGYINPYNDGTKYNEKFQGRVTISSDKSISTAYMELSSLRSEDTAMYYCARGTYYYGTRVFDYWGQGTLVTVSSASTKGPSVFPLAPSSKSTSGGTAALGCLVKDYFPEPVTVSWNSGALTSGVHTFPAVLQSSGLYSLSSVVTVPSSSLGTQTYICNVNHKPSNTKVDKKVEPKSCDKTHTCPPCPAPELLDGPDVFLFPPKPKDTLMISRTPEVTCVVVDVEHEDPEVKFNWYVDGVEVHNAKTKPREEQYNSTYRVVSVLTVLHQDWLNGKEYKCKVSNKALPAPIEKTISKAKGQPREPQVYTLPPSREEMTKNQVSLTCLVKGFYPSDIAVEWESNGQPENNYKTTPPVLDSDGSFFLYSKLTVDKSRWQQGNVFSCSVMHEALHNHYTQKSLSLSPGK light: DIVMTQSPATLSLSPGERATLSCRSSKSLQNVNGNTYLYWFQQKPGQSPQLLIYRMSNLNSGVPDRFSGSGSGTEFTLTISSLEPEDFAVYYCMQHLEYPITFGAGTKLEIKRTVAAPSVFIFPPSDEQLKSGTASVVCLLNNFYPREAKVQWKVDNALQSGNSQESVTEQDSKDSTYSLSSTLTLSKADYEKHKVYACEVTHQGLSSPVTKSFNRGEC | 26.7 | 0.217 | 0.0685 | 84.8 |  | no binding |  |
| G236T (antibody, human IgG1, kappa, HuAM4G7 IgG1 Fc variant) heavy: not shown light: DIVMTQSPATLSLSPGERATLSCRSSKSLQNVNGNTYLYWFQQKPGQSPQLLIYRMSNLNSGVPDRFSGSGSGTEFTLTISSLEPEDFAVYYCMQHLEYPITFGAGTKLEIKRTVAAPSVFIFPPSDEQLKSGTASVVCLLNNFYPREAKVQWKVDNALQSGNSQESVTEQDSKDSTYSLSSTLTLSKADYEKHKVYACEVTHQGLSSPVTKSFNRGEC | 0.35 | 0.486 | 0.0157 |  |  | no binding |  |
| anti-CD19 antibody HuAM4G7 IgG1 Fc variant S239D/S267E (antibody, Positions are EU numbers, not positions on the UniProt entry; copies: 2 + 2) heavy: not shown light: DIVMTQSPATLSLSPGERATLSCRSSKSLQNVNGNTYLYWFQQKPGQSPQLLIYRMSNLNSGVPDRFSGSGSGTEFTLTISSLEPEDFAVYYCMQHLEYPITFGAGTKLEIKRTVAAPSVFIFPPSDEQLKSGTASVVCLLNNFYPREAKVQWKVDNALQSGNSQESVTEQDSKDSTYSLSSTLTLSKADYEKHKVYACEVTHQGLSSPVTKSFNRGEC | 120 |  | 23.2 | 111 | 3.74 |  |  |
| G236S (antibody, human IgG1, kappa, HuAM4G7 IgG1 Fc variant) heavy: not shown light: DIVMTQSPATLSLSPGERATLSCRSSKSLQNVNGNTYLYWFQQKPGQSPQLLIYRMSNLNSGVPDRFSGSGSGTEFTLTISSLEPEDFAVYYCMQHLEYPITFGAGTKLEIKRTVAAPSVFIFPPSDEQLKSGTASVVCLLNNFYPREAKVQWKVDNALQSGNSQESVTEQDSKDSTYSLSSTLTLSKADYEKHKVYACEVTHQGLSSPVTKSFNRGEC | 2.33 | 3.76 | 0.0268 | 1.02 |  |  |  |
| G237A (antibody, human IgG1, kappa, HuAM4G7 IgG1 Fc variant) heavy: not shown light: DIVMTQSPATLSLSPGERATLSCRSSKSLQNVNGNTYLYWFQQKPGQSPQLLIYRMSNLNSGVPDRFSGSGSGTEFTLTISSLEPEDFAVYYCMQHLEYPITFGAGTKLEIKRTVAAPSVFIFPPSDEQLKSGTASVVCLLNNFYPREAKVQWKVDNALQSGNSQESVTEQDSKDSTYSLSSTLTLSKADYEKHKVYACEVTHQGLSSPVTKSFNRGEC | 0.704 |  | 0.0108 | 0.191 |  | no binding | no binding |
| V266M (antibody, human IgG1, kappa, HuAM4G7 IgG1 Fc variant) heavy: not shown light: DIVMTQSPATLSLSPGERATLSCRSSKSLQNVNGNTYLYWFQQKPGQSPQLLIYRMSNLNSGVPDRFSGSGSGTEFTLTISSLEPEDFAVYYCMQHLEYPITFGAGTKLEIKRTVAAPSVFIFPPSDEQLKSGTASVVCLLNNFYPREAKVQWKVDNALQSGNSQESVTEQDSKDSTYSLSSTLTLSKADYEKHKVYACEVTHQGLSSPVTKSFNRGEC | 3.13 |  | 1.25 | 1.91 | 0.547 |  |  |

Second part, the binder after the results:

| Fold FcγRIIaR [1] [fold] | Fold FcγRIIaH [2] [fold] | Fold FcγRI [3] [fold] | Fold FcγRIIb [4] [fold] | Fold FcγRIIIaV [5] [fold] | binding result [5] | binding result [2] | Binder |
| --- | --- | --- | --- | --- | --- | --- | --- |
| 1.6 | 0.733 | 2.06 | 1.33 | 0.398 |  |  | A327D (antibody, human IgG1, kappa, HuAM4G7 IgG1 Fc variant) heavy: not shown light: DIVMTQSPATLSLSPGERATLSCRSSKSLQNVNGNTYLYWFQQKPGQSPQLLIYRMSNLNSGVPDRFSGSGSGTEFTLTISSLEPEDFAVYYCMQHLEYPITFGAGTKLEIKRTVAAPSVFIFPPSDEQLKSGTASVVCLLNNFYPREAKVQWKVDNALQSGNSQESVTEQDSKDSTYSLSSTLTLSKADYEKHKVYACEVTHQGLSSPVTKSFNRGEC |
| 59.9 | 0.0301 | 0.0736 | 149 |  | no binding |  | G236D/S267E/L328F (antibody, human IgG1, kappa, HuAM4G7 IgG1 Fc variant) heavy: EVQLVESGGGLVKPGGSLKLSCAASGYTFTSYVMHWVRQAPGKGLEWIGYINPYNDGTKYNEKFQGRVTISSDKSISTAYMELSSLRSEDTAMYYCARGTYYYGTRVFDYWGQGTLVTVSSASTKGPSVFPLAPSSKSTSGGTAALGCLVKDYFPEPVTVSWNSGALTSGVHTFPAVLQSSGLYSLSSVVTVPSSSLGTQTYICNVNHKPSNTKVDKKVEPKSCDKTHTCPPCPAPELLDGPSVFLFPPKPKDTLMISRTPEVTCVVVDVEHEDPEVKFNWYVDGVEVHNAKTKPREEQYNSTYRVVSVLTVLHQDWLNGKEYKCKVSNKAFPAPIEKTISKAKGQPREPQVYTLPPSREEMTKNQVSLTCLVKGFYPSDIAVEWESNGQPENNYKTTPPVLDSDGSFFLYSKLTVDKSRWQQGNVFSCSVMHEALHNHYTQKSLSLSPGK light: DIVMTQSPATLSLSPGERATLSCRSSKSLQNVNGNTYLYWFQQKPGQSPQLLIYRMSNLNSGVPDRFSGSGSGTEFTLTISSLEPEDFAVYYCMQHLEYPITFGAGTKLEIKRTVAAPSVFIFPPSDEQLKSGTASVVCLLNNFYPREAKVQWKVDNALQSGNSQESVTEQDSKDSTYSLSSTLTLSKADYEKHKVYACEVTHQGLSSPVTKSFNRGEC |
| 29.9 | 0.103 | 0.0902 | 110 |  | no binding |  | G236D/S267E/H268E (antibody, human IgG1, kappa, HuAM4G7 IgG1 Fc variant) heavy: EVQLVESGGGLVKPGGSLKLSCAASGYTFTSYVMHWVRQAPGKGLEWIGYINPYNDGTKYNEKFQGRVTISSDKSISTAYMELSSLRSEDTAMYYCARGTYYYGTRVFDYWGQGTLVTVSSASTKGPSVFPLAPSSKSTSGGTAALGCLVKDYFPEPVTVSWNSGALTSGVHTFPAVLQSSGLYSLSSVVTVPSSSLGTQTYICNVNHKPSNTKVDKKVEPKSCDKTHTCPPCPAPELLDGPSVFLFPPKPKDTLMISRTPEVTCVVVDVEEEDPEVKFNWYVDGVEVHNAKTKPREEQYNSTYRVVSVLTVLHQDWLNGKEYKCKVSNKALPAPIEKTISKAKGQPREPQVYTLPPSREEMTKNQVSLTCLVKGFYPSDIAVEWESNGQPENNYKTTPPVLDSDGSFFLYSKLTVDKSRWQQGNVFSCSVMHEALHNHYTQKSLSLSPGK light: DIVMTQSPATLSLSPGERATLSCRSSKSLQNVNGNTYLYWFQQKPGQSPQLLIYRMSNLNSGVPDRFSGSGSGTEFTLTISSLEPEDFAVYYCMQHLEYPITFGAGTKLEIKRTVAAPSVFIFPPSDEQLKSGTASVVCLLNNFYPREAKVQWKVDNALQSGNSQESVTEQDSKDSTYSLSSTLTLSKADYEKHKVYACEVTHQGLSSPVTKSFNRGEC |
| 0.609 |  | 0.0279 | 0.843 |  | no binding | no binding | A327N (antibody, human IgG1, kappa, HuAM4G7 IgG1 Fc variant) heavy: not shown light: DIVMTQSPATLSLSPGERATLSCRSSKSLQNVNGNTYLYWFQQKPGQSPQLLIYRMSNLNSGVPDRFSGSGSGTEFTLTISSLEPEDFAVYYCMQHLEYPITFGAGTKLEIKRTVAAPSVFIFPPSDEQLKSGTASVVCLLNNFYPREAKVQWKVDNALQSGNSQESVTEQDSKDSTYSLSSTLTLSKADYEKHKVYACEVTHQGLSSPVTKSFNRGEC |
| 122 |  | 0.224 | 43.1 |  | no binding |  | S267E/L328Y (antibody, human IgG1, kappa, HuAM4G7 IgG1 Fc variant) heavy: not shown light: DIVMTQSPATLSLSPGERATLSCRSSKSLQNVNGNTYLYWFQQKPGQSPQLLIYRMSNLNSGVPDRFSGSGSGTEFTLTISSLEPEDFAVYYCMQHLEYPITFGAGTKLEIKRTVAAPSVFIFPPSDEQLKSGTASVVCLLNNFYPREAKVQWKVDNALQSGNSQESVTEQDSKDSTYSLSSTLTLSKADYEKHKVYACEVTHQGLSSPVTKSFNRGEC |
| 3.27 |  | 0.0355 | 19.8 |  | no binding | no binding | G236N/S267E (antibody, human IgG1, kappa, HuAM4G7 IgG1 Fc variant) heavy: not shown light: DIVMTQSPATLSLSPGERATLSCRSSKSLQNVNGNTYLYWFQQKPGQSPQLLIYRMSNLNSGVPDRFSGSGSGTEFTLTISSLEPEDFAVYYCMQHLEYPITFGAGTKLEIKRTVAAPSVFIFPPSDEQLKSGTASVVCLLNNFYPREAKVQWKVDNALQSGNSQESVTEQDSKDSTYSLSSTLTLSKADYEKHKVYACEVTHQGLSSPVTKSFNRGEC |

Reference: patent US20170355766A1 (Xencor, published 2017)
